Laboratory results taken from patent publication US9056102B2, “VEGF-activated trail ligands” (The Regents of the University of California, priority 2005, dated 2015).

B1: R2FasL: FLAG epitope-tagged VEGFR2/FasL fusion protein expressed from pFLAG/R2FasL; apparently the FLAG-tagged form of FlkFasL (protein)
chain: AASVGLPGDFLHPPKLSTQKDILTILANTTLQITCRGQRDLDWLWPNAQRDSEERVLVTECGGGDSIFCKTLTIPRVVGNDTGAYKCSYRDVDIASTVYVYVRDYRSPFIASVSDQHGIVYITENKNKTVVIPCRGSISNLNVSLCARYPEKRFVPDGNRISWDSEIGFTLPSYMISYAGMVFCEAKINDETYQSIMYIVVVVGYRIYDVILSPPHEIELSAGEKLVLNCTARTELNVGLDFTWHSPPSKSHHKKIVNRDVKPFPGTVAKMFLSTLTIESVTKSDQGEYTCVASSGRMIKRNRTFVRVHTKPFIAFGSARGTSEKKELRKVAHLTGKSNSRSMPLEWEDTYGIVLLSGVKYKKGGLVINETGLYFVYSKVYFRGQSCNNLPLSHKVYMRNSKYPQDLVMMEGKMMSYCTTGQMWARSSYLGAVFNLTSADHLYVNVSELSLVNFEESQTFFGLYKL
modifications: left off: small tags and cut ends
notes: apparently the FLAG-tagged form of FlkFasL

Assays:
[1] = system: U87MG human glioblastoma cells; assay: Potentiation of R2FasL by chemotherapeutic agents, resazurin cell viability assay; assay type: cell-based; conditions: 72 hours drug (Bis VIII 1 μM, camptothecin 20 nM, etoposide 5 μM), then R2FasL 10 μL/well for 40 hours
[2] = system: U87MG human glioblastoma cells; assay: Potentiation of R2FasL by chemotherapeutic agents, LDH release assay; conditions: 72 hours drug (Bis VIII 1 μM, camptothecin 20 nM, etoposide 5 μM), then R2FasL 10 μL/well for 40 hours
Description: To determine if the activity of R2FasL can be potentiated by chemotherapeutic agents, the following experiments were performed. U87MG human glioblastoma cells were plated in 96-well plates in 100 μL of complete medium with 10% fetal calf serum at 25,000 cells/well. Forty-eight hours later cells were treated with either bisindolylmaleimide VIII (Bis VIII, final concentration 1 μM), camptothecin (final concentration 20 nM), etoposide (final concentration 5 μM), or DMSO vehicle (1 μL/well). Bis VIII, camptothecin, and etoposide (all from Biomol) were dissolved in DMSO and added at 1 μL/well. After 72 hours of drug exposure, cells were treated with FLAG antibody affinity-purified R2FasL solution (10 μL/well), and incubated for an additional 40 hours. Cell viability and cytotoxicity were assayed using the resazurin assay and the LDG release assay, respectively, as described above.

[3] = system: U87MG human glioblastoma cells; assay: LDH release cytotoxicity assay in glioblastoma cells; assay type: cell-based; conditions: FLAG-purified R2FasL solution 0-10 μL/well, 24 hours
Description: R2FasL solution (0, 0.01, 0.1, 1, or 10 μL), purified by FLAG epitope tag affinity chromatography, was then added to each well (FIG. 17A). In addition, each well received 300 ng of neutralizing anti-VEGF antibody, neutralizing anti-FasL antibody, or control goat Ig (all from R&S Systems). Twenty-four hours later the cells were assayed for cytotoxicity using the LDH release assay (Roche), in which 10 μL of cell supernatant is mixed with 100 μL LDH reaction mixture in a total reaction volume of 200 μL. Cytotoxicity was assayed spectrophotometrically by measuring absorbance at 492 nm.

[4] = system: U87MG human glioblastoma cells; assay: Cell death in glioblastoma cells, Trypan blue cell counting; assay type: cell-based; conditions: Cos7 conditioned medium with R2FasL, 36 hours
Description: To investigate if R2FasL induces apoptosis in human glioblastoma the following experiment was performed. […] Twenty-four hours later conditioned medium from Cos7 cells transfected with either pFLAG/R2FasL or empty pFLAG vector was added (FIG. 17B). The concentration of R2FasL was determined separately by quantitative immunoblotting using commercially produced rhsFasL as standard (R&S Systems). After 36 more hours, cells were trypsinized, stained with Trypan blue, and counted on a hemocytometer. Data in FIG. 17B are shown as mean±SEM.

[5] = system: DU145 human prostate cancer cells; assay: LDH release cytotoxicity assay in prostate cancer cells; assay type: cell-based; conditions: Cos7 conditioned medium with R2FasL, 34 hours
Description: DU145 human prostate cancer cells were plated in 24-well plates in 500 μL of complete medium with 10% fetal calf serum and allowed to grow for 54 hours without change of medium. Conditioned medium from Cos7 cells transfected with either pFLAG/R2FasL or empty pFLAG vector was added in the indicated volumes. After 34 more hours cytotoxicity was assayed using the LDH release assay as described above.

[6] = system: U373 human glioblastoma cells; assay: LDH release cytotoxicity assay in Fas-resistant glioblastoma cells; assay type: cell-based; conditions: Cos7 conditioned medium with R2FasL, 36 hours; cells resistant to Fas receptor-mediated killing
Description: To investigate the specificity of the R2FasL activity on U87MG glioblastoma cells, the cytotoxic effect of R2FasL on the U373 glioblastoma cell line, was analyzed. […] Conditioned medium from Cos7 cells transfected with pFLAG/R2FasL vector was added in the indicated volumes. After 36 more hours cytotoxicity was assayed using the LDH release assay as described herein (FIG. 17D).

[7] = system: Jurkat E6.1 human T cells; assay: Jurkat cell viability, resazurin (AlamarBlue) assay; assay type: cell-based; conditions: 1 μL/well conditioned medium, rhVEGF-165 or rmVEGF-165 0.001-10 nM, 18 hours
Description: Conditioned medium (0.001, 0.01, 0.1, 1, or 10 μL) from Cos7 cells transfected with pFLAG/R1[D2]FasL vector was added in the absence or presence of rhVEGF-165 (final concentration 2 nM). Twenty-two hours later cell viability was assayed using the resazurin assay (AlamarBlue reagent from BioSource). Conversion of AlamarBlue substrate to product by viable cells was determined by adding 20 μL of AlamarBlue to each well and measuring absorbance at 540 nm and […]. Calculation of % conversion of substrate to product was performed according to the manufacturer's protocol.
To investigate which growth factors activate R1[D2]FasL the following experiment was performed. […] All growth factors were used at a final concentration of 10 nM, and were from Peprotech or R&D Systems. Nineteen hours later cell viability was assayed using the resazurin assay as described above.
In a similar experiment, the concentration of the growth factors tested was varied. […] Conditioned medium from Cos7 cells transfected with either pFLAG/R2FasL vector or empty pFLAG vector was added (1 μL/well), in the absence or presence of rhVEGF-165 or rmVEGF-165 at the final concentrations of 0.001, 0.01, 0.1, 1, and 10 nM. Eighteen hours later cell viability was assayed using the resazurin assay as described herein.
To determine the ED50 for hVEGF-165 on R1[D2]FasL the following experiment was performed. […] Conditioned medium from Cos7 cells transfected with pFLAG/R1[D2]FasL vector was added (2 μL/well), in the absence or presence of rhVEGF-165 at 0, 0.01, 0.1, 1, 10, 100, 1,000, or 10,000 nM. Nineteen hours later cell viability was assayed using the resazurin assay as described above.
In a similar experiment the ED50 for hVEGF-165 on R2FasL was determined. […] Conditioned medium from Cos7 cells transfected with pFLAG/R2FasL vector was added in the volumes indicated, in the absence or presence of rhVEGF-165 at the final concentrations of […], 0.2 and 2 nM. Eighteen hours later cell viability was assayed using the resazurin assay. The ED50 for rhVEGF-165 was between 20 pM and 200 pM (FIG. 21B).

[8] = system: Human umbilical vein endothelial cells (HUVEC); assay: Macrovascular endothelial cell viability, resazurin assay; assay type: cell-based; conditions: serum-starved, 10 μL/well conditioned medium, with 2 nM rhVEGF-165, 22 hours
Description: R2FasL may be differentially active in tumor endothelial cells (microvascular) and less toxic to normal macrovascular endotherlial cells, such as arteries and veins. […] Twenty-four hours later serum starvation was begun (to sensitize cells to death signals) by withdrawing serum. After fifteen hours of serum starvation cells were treated Cos7 cell conditioned medium containing R2FasL (10 μL/well) in the absence or presence of rh VEGF-165 (final concentration 2 nM). After 22 hours of treatment with R2FasL±rhVEGF cell viability was assayed using the resazurin assay as described herein. No effect of R2FasL+VEGF was seen on these macrovascular endothelial cells (FIG. 20A).

[9] = system: Bovine adrenal cortical endothelial cells; assay: Microvascular endothelial cell cytotoxicity, LDH release assay; assay type: cell-based; conditions: 2 μL/well conditioned medium, with 2 nM rhVEGF-165, 24 hours
Description: Twenty-two hours later conditioned medium from Cos7 cells transfected with either pFLAG/R2FasL or empty pFLAG vector was added (2 μL/well), in the absence or presence of rhVEGF-165 (final concentration 2 nM). Twenty-four hours later cytotoxicity was assayed using the LDH release assay as described above.

Molecule	potentiation of R2FasL apoptotic activity (cell viability) [1]	potentiation of R2FasL cytotoxic activity (LDH release) [2]	cytotoxicity (LDH release) [3]	cell death (cell count) [4]	cytotoxicity (LDH release) [5]	cytotoxicity (LDH release) [6]	activation by human and mouse VEGF-165 (cell viability) [7]	effect of R2FasL+VEGF on cell viability [8]	cytotoxicity (LDH release) of R2FasL and VEGF [9]
CC[C@@]1(O)C(=O)OCc2c1cc1n(c2=O)Cc2cc3ccccc3nc2-1 [camptothecin]	Potentiation of R2FasL apoptotic activity	Potentiation of R2FasL cytotoxic activity							
B1			induces cytotoxicity	induces cell death	induces cytotoxicity	does not induce cytotoxicity	human and mouse VEGF-165 similarly activate R2FasL	No effect	induce cytotoxicity
